Laboratory results from the domain aggregation screens of Martell et al. (2025).

Assay: soluble fraction after stress (log2 fold change); higher = more stays soluble; pooled small domains, quantitative proteomics
Conditions: stress: pH 4
Outline: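 High-throughput quantitative proteomics was run on pooled custom libraries of small protein domains following pH 4 stress. Fold changes are on a log2 scale; higher values mean more of a domain remained soluble. The fold change in soluble amount is taken as a measure of aggregation propensity.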

| Sequence | soluble fraction (log2) |
| --- | --- |
| HMRGWGTVKRRTPKSGRYRASYIGPDGKRYAADHTYAAKVDADAWLSSERALITAGVWTPPTDRVT | -0.0591 |
| HMNEMEFAQRLRQFRKAKNLTQQELADRLGVSNKSVSRWESGSYPDVGTLVALARALGVTVDELLDPKA | 0.149 |
| HMYPEDMMSLMRRALRLINHLESNRKDRHNSRQLELTESKIRRLARYYKGRGLIETEWAYKRDQLRLLV | -0.184 |
| HMEPGEVQVDGLRFIAQPQERNDFEVALEQFRAGNFAAARKSFAAFINTYKQSGYLPSARFW | -0.152 |
| HMDVNKDLLGETLEKAKSYKADDWRKASYEALQKAIVEAEAVYKDEEADQVAVDRKVAALNKAINNLEAKG | 0.241 |
| HMRHLSVPSQDTQQVLQRLKVELALPEGARVRSDPSDPGRRLIPFTESVPQEMIDQYPVVSINI | -0.458 |
